Measurements reported in patent publication US20190113512A1 (MIT, published 2019).

Experiments:
H1BA = H1BA (Mycobacterium tuberculosis); experiment: yeast-surface display flow cytometry, specificity test
H7BA = H7BA (Mycobacterium tuberculosis); experiment: as above
H2BA [1] = molecular target: T1, H2BA (Mycobacterium tuberculosis); experiment: as above
H6BA = H6BA (Mycobacterium tuberculosis); experiment: as above
H2BA [2] = molecular target: T1, H2BA; experiment: yeast-surface display; validated conditions not given
[3] = molecular target: T2, streptavidin Alexa Fluor 647 (UniProt P22629 37-163); experiment: yeast-surface display flow cytometry, secondary reagent alone, geometric MFI
T2 construct: also called SA-AF647; streptavidin-AF 647
T2 sequence (P22629 37-163 limits assumed): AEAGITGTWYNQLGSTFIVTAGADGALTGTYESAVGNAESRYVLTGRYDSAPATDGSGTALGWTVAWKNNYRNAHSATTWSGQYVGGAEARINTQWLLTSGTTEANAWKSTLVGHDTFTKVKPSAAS

B1: rcSso7d.H1BA.3 (designed binder)
chain: MATVKFTYQGEEKQVDISKIKHVIRNGQYIIFAYDEGGGAYGGGWVSEKDAPKELLQMLEKQ
notes: also called 1.E2.2
For B1, the “% positive” value (H1BA) was 71.5%, the “% positive” value (H7BA) was 1.3% and the “% positive” value (H2BA [1]) was 0.9%. The “% positive” value (H6BA) was 0.9%.

B2: rcSso7d.H2BA.2 (designed binder)
chain: MATVKFTYQGEEKQVDISKIKYVGRWGQNIGFAYDEGGGAYGYGGVSEKDAPKELLQMLEKQ
B2: binds (H2BA [2]).

B3: rcSso7d.Rv1656 (yeast-surface displayed) (designed binder)
chain: MATVKFTYQGEEKQVDISKIKWVRRYGQYIGFSYDEGGGAWGKGYVSEKDAPKELLQMLEKQ
notes: also called rcSso7d.H4.2; H4.2
B3: no binding [3].
